These results are taken from US20040001839A1, “Multimers - isolated molecules comprising epitopes containing sulfated moieties, antibodies to such epitopes, and uses thereof” (priority 2000, published 2004).

One experiment relates to Jurkat cells. In words: FACS binding of Y1-cys monomer and dimer to Jurkat cells. Details: species or system human. The source says: The present invention is directed to Y1 and Y17 multimers prepared by any known method in the art. A preferred method of forming multimers, and especially dimers, employs the use of cysteine residues to form disulfide bonds between two monomers. In this embodiment, dimers are formed by adding a cysteine on the carboxyl terminus of the scFvs (referred to as Y1-cys scFv or Y1 dimer) in order to facilitate dimer formation. After the DNA construct was made (See Example 2D and 6D) and used for transfection, Y1 dimers were expressed in a production vector and refolded in vitro. The protein was analyzed by SDS-PAGE, HPLC, and FACS. […] Thus, the process was repeated and this time, two-liter fermentation batches of the antibodies were run. After expressing Y1-cys in E. coli strain BL21, refolding was done in arginine. Following refolding, the protein was dialyzed and purified by Q-sepharose and gel filtration (sephadex 75). Two peaks were detected by SDS-PAGE (non-reduced) and by gel filtration. The peaks were collected separately and analyzed by FACS. Monomer and dimer binding to Jurkat cells was checked by FACS. […] Conditions for dimer refolding were determined, and material comprising >90% dimers (mg quantities) was produced after subsequent dialysis, chromatographic, and gel filtration steps. […]
(Flow cytometry measures light scatter and fluorescence of single cells or particles in a stream.)

In experiment [1] the test system is KG-1 cells. In words: Binding competition experiments on KG-1 cells (monomer, dimer, Y1 IgG). The note with it: as analyzed by radioreceptor assay, ELISA or FACS. Details: species or system human. From the text:
To compare the binding of the scFv monomer (also referred to as CONY1) with the Y1 dimer, binding competition experiments were done in vitro on KG-1 cells. In addition, these experiments also compared the binding of the full Y1 IgG to the scFv Y1 monomers. To perform this study, a Y1 IgG was labeled with biotin.
(In general: ELISA stands for enzyme-linked immunosorbent assay.)

Experiment [2] deals with KG-1 cells. Nature of the experiment: FACS of Y1-biotag and Y1-biotag/streptavidin-PE tetramers on KG-1 cells. The experiment is classed as binding, human. As to the method:
In a preferred method, tetramers are formed via a biotin/streptavidin association. A novel fermentation construct that is capable of being enzymatically labeled with biotin (referred to herein as Y1-biotag or Y1-B) was created. A sequence that is a substrate for the BirA enzyme was added at the Y1 C-terminus. The BirA enzyme adds a biotin to the lysine residue within the sequence. Y1-biotag was expressed in E. coli. The inclusion body material was isolated and refolded. The purity of the folded protein was >95%, and >100 mg were obtained from a 1-L culture (small-scale, non-optimized conditions). […] Nevertheless, this construct offered the advantage of specific biotinylation in which the binding site of the molecule remains intact. Further, each molecule is labeled by only one biotin—each molecule receives one biotin on the carboxyl end.
Limiting labeling to one biotin/molecule in a desired location enabled production of tetramers with streptavidin. The tetramers were formed by incubating Y1-B with steptavidin-PE.
Y1-biotag tetramers with streptavidin-PE appear to specifically bind to one of the Y1-reactive cell lines (KG-1). The differential of this reaction, from background binding, was very high, and offered high sensitivity to detect low amounts of receptor. […] Monocytes and granulocytes were positive to a small extent. […]

The subject of a further experiment is washed platelets. In words: Ristocetin-induced agglutination of washed platelets (scFv). The format is cell-based, human. How it is done:
Aggregation is determined in PRP due to the presence of thrombotic agents, while agglutination is determined in washed platelets. The effect of Y1 (scFv) on agglutination of washed platelets was tested at various concentrations of Y1. Platelets were pre-incubated with Y1 scFv, Y17 scFv, Y16-scFv, or a control TM-1 scFv for 4 min at 37° C. before being exposed to ristocetin, an inducer of platelet agglutination and aggregation.
Platelet concentrate in acid-citrate-dextrose (ACD) was obtained from a blood bank, platelets were isolated, washed once in buffer containing ACD and saline in a ratio of 1:7. The platelets were centrifuged at 800 g for 10 min after each wash and were resuspended in Tyrodes solution (2 mM MgCl2, 137 mM NaCl, 2.68 mM KCl, 3 mM NaH2PO4, 0.1% glucose, 5 mM Hepes and 0.35% albumin, pH 7.35) and count the number of cells.
(§1) For platelet aggregation studies, platelet rich plasma (PRP) and washed platelets were stirred at 500 rpm at 37° C. in whole blood Lumiaggregometer (Chronolog, Havertown, Pa.). The difference in light transmission through the platelet suspension and suspending medium was taken as 100% aggregation. The effect of Y1 on platelet aggregation was evaluated by addition of different concentration of Y1 before the addition of agonist, and the effect was recorded for four minutes.
The effect of Y17-scFv on vWF-dependent agglutination of platelets was tested at different concentrations of Y17.

The test system of experiment [3] is platelet-rich-plasma (PRP). Nature of the experiment: Ristocetin-induced aggregation of platelet-rich plasma (scFv). The experiment is classed as cell-based, human. The following applies: scFv 38 μg/ml, 100% = ristocetin treatment. As to the method:
The effect of Y1 (scFv) on aggregation of platelet-rich-plasma (PRP) was tested at various concentrations of Y1. PRP was pre-incubated with Y1 scFv, Y17 scFv, or a control sTM-1cFv for 4 min at 37° C. before being exposed to ristocetin, an inducer of platelet agglutination and aggregation. A reversible inhibitory effect was observed when scFv was added to PRP prior to the addition of ristocetin, and it was dose dependent.
Blood was collected into a tube containing 3.8% sodium citrate. Platelet-rich plasma was prepared by centrifugation at 250×g for 10 minutes.
as §1

Broadly, the % inhibition is the relative decrease from the control value, in per cent.

B1: Y1 dimer: disulfide dimer of Y1 scFv with a cysteine added on the carboxyl terminus (protein)
scFv 1: MEVQLVESGGGVVRPGGSLRLSCAASGFTFDDYGMSWVRQAPGKGLEWVSGINWNGGSTGYADSVKGRFTISRDNAKNSLYLQMNSLRAEDTAVYYCARMRAPVIWGQGTLVTVSRGGGGSGGGGSGGGGSSELTQDPAVSVALGQTVRITCQGDSLRSYYASWYQQKPGQAPVLVIYGKNNRPSGIPDRFSGSSSGNTASLTITGAQAEDEADYYCNSRDSSGNHVVFGGGTKLTVLGGGGCKAK
scFv 2: B1 scFv 1
In the case of B1, in the experiment with Jurkat cells, the “amount needed relative to the monomeric antibody for the same level of staining” value is 1/100. Moreover, in the experiment on KG-1 cells [1], the “binding relative to the Y1 scFv monomer” value is recorded as “at least 20 fold”.

B2: Y1 tetramers: tetramers formed by incubating Y1-B with streptavidin-PE (protein)
scFv 1: MEVQLVESGGGVVRPGGSLRLSCAASGFTFDDYGMSWVRQAPGKGLEWVSGINWNGGSTGYADSVKGRFTISRDNAKNSLYLQMNSLRAEDTAVYYCARMRAPVIWGQGTLVTVSRGGGGSGGGGSGGGGSSELTQDPAVSVALGQTVRITCQGDSLRSYYASWYQQKPGQAPVLVIYGKNNRPSGIPDRFSGSSSGNTASLTITGAQAEDEADYYCNSRDSSGNHVVFGGGTKLTVLGGGGLNDIFEAQKIEWHE
scFv 2: B2 scFv 1
scFv 3: B2 scFv 1
scFv 4: B2 scFv 1
modifications: left off: another chain or arm of the molecule; large carriers; small tags and cut ends
notes: tetramers formed by incubating Y1-B with streptavidin-PE
Turning to B2, the “reactivity in positive cell lines such as KG-1” value in the experiment with KG-1 cells [2] (FACS) is listed as “at least 100 fold”. For the same molecule, the “increase of the sensitivity of the binding” value with KG-1 cells [2] (complexes with Streptavidin-PE, FACS on KG-1 cells) is “at least 100 fold”.

B3: Y17 scFv: second scFv clone binding platelets and myelogenous leukemia cell lines; SEQ ID NO:203, CDR3 SEQ ID NO:20 (protein, listed as Homo sapiens)
scFv: MKYLLPTAAAGLLLLAAQPAMAEVQLVESGGGVVRPGGSLRLSCAASGFTFDDYGMSWVRQAPGKGLEWVSGINWNGGSTGYADSVKGRFTISRDNAKNSLYLQMNSLRAEDTAVYYCARLTHPYFWGQGTLVTVSRGGGGSGGGGSGGGGSSELTQDPAVSVALGQTVRITCQGDSLRSYYASWYQQKPGQAPVLVIYGKNNRPSGIPDRFSGSSSGNTASLTITGAQAEDEADYYCNSRDSSGNHVVFGGGTKLTVLGAAAEQKLISEEDLNGAA
In the case of B3, in the experiment with washed platelets (final concentration of 10, 25 or 50 μg/ml, washed platelets, ristocetin), the “inhibition of vWF-dependent platelet agglutination” value is “did not inhibit”. The “% agglutination” value in the experiment on washed platelets (scFv 25 μg/ml, 100% = ristocetin treatment) is 85%. Also, the “% inhibition” value in the experiment on washed platelets (scFv 25 μg/ml, ristocetin-induced agglutination) is listed as 15%. Also, in experiment [3], the “% aggregation” value came out at 100%.
